Test results as given in PMC7865148 (Proceedings of the National Academy of Sciences of the …, 2021).

T1: NST1-GST fusion protein (Arabidopsis thaliana, UniProt Q84WP6 1-365)
T1 sequence (looked up): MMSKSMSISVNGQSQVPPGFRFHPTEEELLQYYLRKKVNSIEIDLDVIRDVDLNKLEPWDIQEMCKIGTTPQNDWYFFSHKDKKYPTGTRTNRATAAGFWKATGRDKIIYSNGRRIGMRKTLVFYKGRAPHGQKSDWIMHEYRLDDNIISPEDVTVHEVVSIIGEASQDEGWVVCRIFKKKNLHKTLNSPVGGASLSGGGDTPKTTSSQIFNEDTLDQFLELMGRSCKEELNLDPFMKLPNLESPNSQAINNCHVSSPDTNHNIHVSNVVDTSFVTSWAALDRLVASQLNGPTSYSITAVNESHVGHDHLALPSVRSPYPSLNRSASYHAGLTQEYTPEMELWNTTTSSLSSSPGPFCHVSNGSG

B1: SnRK2.2-6xHis fusion protein (enzyme, Arabidopsis thaliana, UniProt Q39192 1-362, looked up)
chain: MDPATNSPIMPIDLPIMHDSDRYDFVKDIGSGNFGVARLMTDRVTKELVAVKYIERGEKIDENVQREIINHRSLRHPNIVRFKEVILTPSHLAIVMEYAAGGELYERICNAGRFSEDEARFFFQQLISGVSYCHAMQICHRDLKLENTLLDGSPAPRLKICDFGYSKSSVLHSQPKSTVGTPAYIAPEILLRQEYDGKLADVWSCGVTLYVMLVGAYPFEDPQEPRDYRKTIQRILSVTYSIPEDLHLSPECRHLISRIFVADPATRITIPEITSDKWFLKNLPGDLMDENRMGSQFQEPEQPMQSLDTIMQIISEATIPTVRNRCLDDFMADNLDLDDDMDDFDSESEIDVDSSGEIVYAL
B2: SnRK2.3-6xHis fusion protein (enzyme, Arabidopsis thaliana, UniProt Q39193 1-361, looked up)
chain: MDRAPVTTGPLDMPIMHDSDRYDFVKDIGSGNFGVARLMRDKLTKELVAVKYIERGDKIDENVQREIINHRSLRHPNIVRFKEVILTPTHLAIIMEYASGGELYERICNAGRFSEDEARFFFQQLLSGVSYCHSMQICHRDLKLENTLLDGSPAPRLKICDFGYSKSSVLHSQPKSTVGTPAYIAPEVLLRQEYDGKIADVWSCGVTLYVMLVGAYPFEDPEEPRDYRKTIQRILSVKYSIPDDIRISPECCHLISRIFVADPATRISIPEIKTHSWFLKNLPADLMNESNTGSQFQEPEQPMQSLDTIMQIISEATIPAVRNRCLDDFMTDNLDLDDDMDDFDSESEIDIDSSGEIVYAL
B3: SnRK2.6-6xHis fusion protein (enzyme, Arabidopsis thaliana, UniProt Q940H6 1-362, looked up)
chain: MDRPAVSGPMDLPIMHDSDRYELVKDIGSGNFGVARLMRDKQSNELVAVKYIERGEKIDENVKREIINHRSLRHPNIVRFKEVILTPTHLAIVMEYASGGELFERICNAGRFSEDEARFFFQQLISGVSYCHAMQVCHRDLKLENTLLDGSPAPRLKICDFGYSKSSVLHSQPKSTVGTPAYIAPEVLLKKEYDGKVADVWSCGVTLYVMLVGAYPFEDPEEPKNFRKTIHRILNVQYAIPDYVHISPECRHLISRIFVADPAKRISIPEIRNHEWFLKNLPADLMNDNTMTTQFDESDQPGQSIEEIMQIIAEATVPPAGTQNLNHYLTGSLDIDDDMEEDLESDLDDLDIDSSGEIVYAM

These binders were tested against T1, NST1-GST fusion protein (assay: pull-down).

Binding result, binds:
B1
B2
B3
